In this series the target is T1, TgGRA1 (Toxoplasma gondii, UniProt P13403 25-190).
T1 sequence: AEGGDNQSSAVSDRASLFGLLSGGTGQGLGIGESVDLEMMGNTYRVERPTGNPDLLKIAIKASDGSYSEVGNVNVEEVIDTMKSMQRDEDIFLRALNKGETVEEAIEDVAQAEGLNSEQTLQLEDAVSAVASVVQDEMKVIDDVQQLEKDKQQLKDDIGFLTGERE
Kind of series: EMSA; 2 mg/mL protein. The conditions noted are these: protein: recombinant; tags: His; label: biotin (TdT labeling); four-way junction of 4 strands. On the technique in general: Mobility shift assays separate free from complexed probe on a gel.

B1: 4H cruciform DNA (4H-a/4H-b/4H-c/4H-d) (structured_DNA)
DNA 1: AACAGTAGCTTATTCGAGCTCGCGCCCTATCACGACGACTA
DNA 2: GTAGTCGTCGTGATAGGTGCAGGGGTTATAGGG
DNA 3: CCCTATAACCCCTGCATTGAATTCCAGTCTGATAA
DNA 4: TTTATCAGACTGGAATTCAAGCGCGAGCTCGAATAAGCTACTGT
Take B1: the binding result is recorded as “no binding”.
